In US20140377284A1 (BIOCEROX PRODUCTS B V, published 2014) one finds EC50, binding result and IC50 data, which are given here for 5 molecules.

Assay [1] addresses T1, recombinant human CD134:human Fcγ (IgG1) fusion protein (human, UniProt P01857-1 100-330 = IgG part, limits assumed).
T1 construct: domain: Fcγ (IgG1); Bought (R&D Systems); also called rhuCD134
Put plainly: ELISA, plate-bound CD134:Fc 50 ng/well. As for the experimental part:
Ninety six-wells flat-bottom ELISA plates (Corning) were coated with 50 ng/well recombinant human CD134:human Fcγ (IgG1) fusion protein (R&D Systems) in PBS o/n at 4° C. After extensive washing in PBS/0.05% Tween 20, plates were blocked in PBS/0.05% Tween 20/1% BSA fraction V (Roche) for 1 hour at RT. […] After extensive washing in PBS/0.05% Tween 20, binding of antibodies was determined with 1:5000 diluted horseradish peroxidase-conjugated goat anti-mouse (Fcγ specific) antibodies (Jackson ImmunoResearch) or with 1:4000 diluted horseradish peroxidase-conjugated goat anti-human κ-specific antibodies (Southern Biotech) for 1 hour at RT, followed by a ready-to-use solution of TMB substrate (Invitrogen) for colorimetric detection. After adding 1 M H₂SO₄, optical densities were measured at, a wavelength of 450 nm (reference wavelength of 655 nm) using a microplate reader (BioRad).
Background: ELISA stands for enzyme-linked immunosorbent assay.

The target in assay [2] is T2, human CD134 (full-length, on cells) (human, UniProt P43489 29-277).
T2 construct: also called OX40; TNFRSF4
T2 sequence: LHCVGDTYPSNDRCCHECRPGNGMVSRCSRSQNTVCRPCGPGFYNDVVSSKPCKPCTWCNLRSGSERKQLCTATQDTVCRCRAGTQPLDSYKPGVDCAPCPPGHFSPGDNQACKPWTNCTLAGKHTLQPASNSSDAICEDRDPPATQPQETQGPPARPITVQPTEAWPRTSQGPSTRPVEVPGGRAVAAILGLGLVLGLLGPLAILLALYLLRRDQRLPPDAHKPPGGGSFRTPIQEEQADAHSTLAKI
Put plainly: flow cytometry, stable CD134 293-F clone no. 5. As for the experimental part: (§1) Full-length human CD134 (SEQ ID NO. 1) was re-cloned in a pcDNA3.1-derived expression plasmid (see Example 11 (d) below). […] After extensive washing in PBS/BSA/NaN₃, cells were subsequently incubated with 1:200 diluted PE-conjugated goat anti-mouse IgG (Fcγ specific) antibodies (Jackson ImmunoResearch) or with 1:200 diluted PE-conjugated goat anti-human IgG (Fcγ specific) antibodies (Jackson ImmunoResearch) for 30 minutes at 4° C. After extensive washing in PBS/BSA/NaN₃, cells were fixed in 2% formaldehyde in PBS/BSA/NaN₃ for 30 minutes at 4° C. Binding of antibodies was measured using flow cytometry (FACSCalibur; BD Biosciences).
(A flow cytometer gives signals particle by particle.)

Assay [3] concerns the target T3, truncated human CD134 'CRD3' construct (human, UniProt P43489 108-277).
T3 construct: also called truncated human CD134 variant that lacked CRD1-CRD2
T3 sequence: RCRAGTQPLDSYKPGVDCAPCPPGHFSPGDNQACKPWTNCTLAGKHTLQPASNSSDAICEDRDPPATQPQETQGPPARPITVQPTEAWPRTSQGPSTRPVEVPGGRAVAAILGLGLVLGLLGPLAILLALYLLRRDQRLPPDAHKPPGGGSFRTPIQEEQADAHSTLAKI
Put plainly: flow cytometry, transiently transfected 293-F cells, 20.0 µg/mL. Here is the method:
(§2) After 48 h, surface human CD134 expression on transfected cells was analyzed by FACS analysis. To this end, transfected cells were harvested and put at 1-2×10⁶ cells/mL in ice-chilled PBS/BSA/NaN₃ supplemented with 50 μg/mL purified human IgG (Sigma; blocking Fey receptors). […] After extensive washing in PBS/BSA/NaN₃, cells were subsequently incubated with 1:200 diluted PE-conjugated goat anti-mouse IgG (Fcγ specific) antibodies (Jackson ImmunoResearch) or with 1:200 diluted PE-conjugated goat anti-human IgG (Fcγ specific) antibodies (Jackson ImmunoResearch) for 30 minutes at 4° C. […] After extensive washing in PBS/BSA/NaN₃, cells were subsequently incubated with 1:200 diluted PE-conjugated goat anti-mouse IgG (Fcγ specific) antibodies (Jackson ImmunoResearch) for 30 minutes at 4° C. After extensive washing in PBS/BSA/NaN₃, cells were fixed in 2% formaldehyde in PBS/BSA/NaN₃ for 30 minutes at 4° C. Binding of antibodies was measured using flow cytometry (FACSCalibur; BD Biosciences).

Assay [4] has as its target T4, truncated human CD134 'CRD4' construct (human, UniProt P43489 127-277).
T4 construct: also called truncated human CD134 variant that lacked CRD1-CRD2-truncated CRD3 A1-module
T4 sequence: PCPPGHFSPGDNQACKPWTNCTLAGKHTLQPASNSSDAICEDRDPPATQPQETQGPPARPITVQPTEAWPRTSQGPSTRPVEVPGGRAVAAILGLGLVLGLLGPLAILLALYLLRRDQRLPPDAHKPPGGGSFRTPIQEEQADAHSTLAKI
Described as above. Here is the method: as §2

Assay [5] has as its target T2, human CD134 (full-length, on cells). Put plainly: flow cytometry, OX40L 10.0 µg/mL with anti-polyhistidine antibody. Here is the method:
PHA-stimulated (at 10 μg/mL for 1 day; see above) human CD134 expressing T lymphocytes were generated. […] After extensive washing in PBS/BSA/NaN₃, cells were fixed in 2% formaldehyde in PBS/BSA/NaN₃ for 30 minutes at 4° C.

For assay [6] the target is unchanged. Put plainly: flow cytometry, PHA-stimulated human CD4+ T lymphocytes (data not shown). Here is the method:
PHA-stimulated (at 10 μg/mL for 1 day; see above) human CD134 expressing T lymphocytes were generated. […] After extensive washing in PBS/BSA/NaN₃, cells were subsequently incubated with 1:50 diluted FITC-conjugated mouse anti-human IgG4 antibodies (Sigma) for 30 minutes at 4° C. […] After extensive washing in PBS/BSA/NaN₃, cells were fixed in 2% formaldehyde in PBS/BSA/NaN₃ for 30 minutes at 4° C. Binding of antibodies was measured using flow cytometry (FACSCalibur; BD Biosciences).

Assay [7] has as its target T5, human fibronectin-derived control peptide (extra type III structural domain) (human).
T5 construct: Synthesized by Pepscan Presto; coated on ELISA plates
T5 peptide: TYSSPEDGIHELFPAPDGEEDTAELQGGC
Put plainly: peptide ELISA. As for the experimental part:
(§3) After adding 1 M […], optical densities was measured at a wavelength of 450 nm (reference wavelength of 655 nm) using a microplate reader (BioRad).
(§4) Ninety six-wells flat-bottom ELISA plates (Corning) were coated with 10 ng/well human CD134-derived peptide (synthesized by Pepscan Presto, Lelystad, The Netherlands), which corresponded to amino acid sequence of truncated CRD3 A1-module-CRD4 subdomain A1 module (see SEQ ID NO. 38) or with 10 ng/well human fibronectin-derived control peptide (synthesized by Pepscan Presto, Lelystad, The Netherlands), which corresponded to amino acid sequence of extra type III structural domain (see SEQ ID NO. 37) in PBS o/n at 4° C. After extensive washing in PBS/0.05% Tween 20, plates were blocked in PBS/0.05% Tween 20/1% BSA fraction V (Roche) for 1 hour at RT. […] After extensive washing in PBS/0.05% Tween 20, binding of antibodies was determined with 1:5000 diluted horseradish peroxidase-conjugated goat anti-human IgG Fcγ-specific antibodies (Jackson ImmunoResearch) for 1 hour at RT, followed by a ready-to-use solution of TMB substrate (Invitrogen) for colorimetric detection. After adding 1 M H₂SO₄, optical densities was measured at a wavelength of 450 nm (reference wavelength of 655 nm) using a microplate reader (BioRad).

In assay [8] the target is T6, truncated human CD134 'truncated (tc) CRD4' construct (human, UniProt P43489 147-277).
T6 construct: also called truncated CRD4
T6 sequence: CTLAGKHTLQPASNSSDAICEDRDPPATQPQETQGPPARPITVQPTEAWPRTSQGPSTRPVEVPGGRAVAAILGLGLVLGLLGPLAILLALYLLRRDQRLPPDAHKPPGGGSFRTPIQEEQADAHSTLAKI
Put plainly: flow cytometry, transiently transfected 293-F cells (parental 12H3: binding completely absent on tcCRD4). As for the experimental part: After 48-72 h, surface human CD134 expression on transfected cells was analyzed by FACS analysis. To this end, transfected cells were harvested and put at 1-2×10⁶ cells/mL in ice-chilled PBS/BSA/NaN₃. […] After extensive washing in PBS/BSA/NaN₃, cells were subsequently incubated with 1:200 diluted PE-conjugated goat anti-human IgG (Fcγ specific) antibodies (Jackson ImmunoResearch) for 30 minutes at 4° C. After extensive washing in PBS/BSA/NaN₃, cells were fixed in 2% formaldehyde in PBS/BSA/NaN₃ for 30 minutes at 4° C. Binding of antibodies was measured using flow cytometry (FACSCalibur; BD Biosciences).

Assay [9] deals with T2, human CD134 (full-length, on cells). Put plainly: competition flow cytometry, stable CD134 293-F clone no. 5; competitor biotinylated mouse 12H3 at 700 ng/mL. As for the experimental part:
Full-length human CD134 (SEQ ID NO1) was re-cloned in a pcDNA3.1-derived expression plasmid (see Example 11 (c) above). […] After extensive washing in PBS/BSA/NaN₃, cells were fixed in 2% formaldehyde in PBS/BSA/NaN₃ for 30 minutes at 4° C.

The target is the same in assay [10]. Put plainly: flow cytometry, stable CD134 293-F clone no. 23. Here is the method:
as §1

Assay [11] addresses T7, human CD134-derived peptide (truncated CRD3 A1-module-CRD4 subdomain A1-module) (human).
T7 construct: Synthesized by Pepscan Presto; coated on ELISA plates
T7 peptide: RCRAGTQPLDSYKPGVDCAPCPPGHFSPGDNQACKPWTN
Put plainly: peptide ELISA, 10 ng/well peptide coated. As for the experimental part: as §3, §4

The target of assay [12] is T1, recombinant human CD134:human Fcγ …. Put plainly: competition ELISA, plate-bound CD134:Fc; competitor biotinylated mouse 12H3 at 20 ng/mL. Here is the method:
Ninety six-wells flat-bottom ELISA plates (Corning) were coated with 50 ng/well recombinant human CD134:human Fcγ (IgG1) fusion protein (R&D Systems) in PBS o/n at 4° C. After extensive washing in PBS/0.05% Tween 20, plates were blocked in PBS/0.05% Tween 20/1% BSA fraction V (Roche) for 1 hour at RT. […] After adding 1 M H₂SO₄, optical densities were measured at a wavelength of 450 nm (reference wavelength of 655 nm) using a microplate reader (BioRad).

B1: humanized IgG4κ anti-human CD134 antibody clone 20E5 version 20E5_VL1VH1 (antibody, V domains shown)
VH: QVQLVQSGAEVKKPGASVKVSCKASGYTFTSYVMHWVRQAPGQRLEWMGYINPYNDGTKYNEKFKGRVTITSDTSASTAYMELSSLRSEDTAVYYCANYYGSSLSMDYWGQGTLVTVSS
VL: DIQMTQSPSSLSASVGDRVTITCRASQDISNYLNWYQQKPGKAPKLLIYYTSRLHSGVPSRFSGSGSGTDYTLTISSLQPEDFATYYCQQGNTLPWTFGQGTKVEIKR
notes: Stabilized human IgG4 (Angal et al.)/κ; also called 20E5_VL1H1; VL1H1
What is called EC50 is the concentration at which the effect is half-maximal. With B1, the 50% effective concentration (EC50) in assay [1] is ~0.15 µg/mL. Besides, the binding result in assay [2], in [3] and in assay [4] was “binds” throughout.

B2: polyhistidine-tagged recombinant human OX40 ligand (ligand, UniProt P23510 51-183, looked up)
chain: QVSHRYPRIQSIKVQFTEYKKEKGFILTSQKEDEIMKVQNNSVIINCDGFYLISLKGYFSQEVNISLHYQKDEEPLFQLKKVRSVNSLMVASLTYKDKVYLNVTTDNTSLDDFHVNGGELILIHQNPGEFCVL
notes: Bought; used together with mouse anti-polyhistidine antibody (clone AD1.1.10); also called CD252; not shown: polyhistidine tag
Consider B2, for which the binding result in [5] is listed as “binds”.

B3: chimeric human IgG4κ anti-human CD134 antibody clone 20E5 (antibody, V domains shown)
VH: EVQLQQSGPELVKPGASVKMSCKASGYTFTSYVMHWVKQKPGQGLEWIGYINPYNDGTKYNEKFKGKATLTSDKSSSTAYMELSSLTSEDSAVYYCANYYGSSLSMDYWGQGTSVTVSS
VL: DIQMTQTTSSLSASLGDRVTISCRASQDISNYLNWYQQKPDGTVKLLIYYTSRLHSGVPSRFSGSGSGTDYSLTISNLEQEDIATYFCQQGNTLPWTFGGGTKLEIKR
notes: Murine V-regions linked to human IgG4 and human kappa constant regions
For B3, the concentration giving a half-maximal response (EC50) is ~0.1 µg/mL in assay [1] and ~1 µg/mL in assay [6].

B4: chimeric human IgG4κ anti-human CD134 antibody clone 12H3 (antibody, V domains shown)
VH: EVQLQQSGPELVKPGASVKISCKTSGYTFKDYTMHWVKQSHGKSLEWIGGIYPNNGGSTYNQNFKDKATLTVDKSSSTAYMEFRSLTSEDSAVYYCARMGYHGPHLDFDVWGAGTTVTVSP
VL: DIVMTQSHKFMSTSLGDRVSITCKASQDVGAAVAWYQQKPGQSPKLLIYWASTRHTGVPDRFTGGGSGTDFTLTISNVQSEDLTDYFCQQYINYPLTFGGGTKLEIKR
notes: Murine V-regions linked to human IgG4 and human kappa constant regions; also called chimeric 12H3 (human IgG4/κ)
Broadly, the IC50 is the point on the concentration scale where inhibition reaches its midpoint. For B4, the EC50 was ~0.1 µg/mL in [1] and > 0.2 µg/mL in assay [10]. Also, the binding result in [7] is given as “no binding (tested: 50.0 µg/mL)”; in [8], “no binding (tested: 20.0 µg/mL)”; in assay [11], “binds”. In addition, the IC50 in assay [9] is ~3.5 µg/mL; in assay [12] it was ~0.75 µg/mL.

B5: chimeric human IgG1κ anti-human CD134 monoclonal antibody clone 12H3 (antibody, V domains shown)
VH: EVQLQQSGPELVKPGASVKISCKTSGYTFKDYTMHWVKQSHGKSLEWIGGIYPNNGGSTYNQNFKDKATLTVDKSSSTAYMEFRSLTSEDSAVYYCARMGYHGPHLDFDVWGAGTTVTVSP
VL: DIVMTQSHKFMSTSLGDRVSITCKASQDVGAAVAWYQQKPGQSPKLLIYWASTRHTGVPDRFTGGGSGTDFTLTISNVQSEDLTDYFCQQYINYPLTFGGGTKLEIKR
notes: Human IgG1/kappa constant regions
As to B5, the binding result in assay [8] was “no binding (tested: 20.0 µg/mL)”.
